What all share (assay): fluorescence anisotropy
(In general: Polarisation of emitted light reports the rotation of a fluorescent probe.)

The target in data set [1] is T1, rGyr_fl Y851F (full-length reverse gyrase) (Thermotoga maritima, UniProt O51934 1-1104, Y851F).
T1 sequence: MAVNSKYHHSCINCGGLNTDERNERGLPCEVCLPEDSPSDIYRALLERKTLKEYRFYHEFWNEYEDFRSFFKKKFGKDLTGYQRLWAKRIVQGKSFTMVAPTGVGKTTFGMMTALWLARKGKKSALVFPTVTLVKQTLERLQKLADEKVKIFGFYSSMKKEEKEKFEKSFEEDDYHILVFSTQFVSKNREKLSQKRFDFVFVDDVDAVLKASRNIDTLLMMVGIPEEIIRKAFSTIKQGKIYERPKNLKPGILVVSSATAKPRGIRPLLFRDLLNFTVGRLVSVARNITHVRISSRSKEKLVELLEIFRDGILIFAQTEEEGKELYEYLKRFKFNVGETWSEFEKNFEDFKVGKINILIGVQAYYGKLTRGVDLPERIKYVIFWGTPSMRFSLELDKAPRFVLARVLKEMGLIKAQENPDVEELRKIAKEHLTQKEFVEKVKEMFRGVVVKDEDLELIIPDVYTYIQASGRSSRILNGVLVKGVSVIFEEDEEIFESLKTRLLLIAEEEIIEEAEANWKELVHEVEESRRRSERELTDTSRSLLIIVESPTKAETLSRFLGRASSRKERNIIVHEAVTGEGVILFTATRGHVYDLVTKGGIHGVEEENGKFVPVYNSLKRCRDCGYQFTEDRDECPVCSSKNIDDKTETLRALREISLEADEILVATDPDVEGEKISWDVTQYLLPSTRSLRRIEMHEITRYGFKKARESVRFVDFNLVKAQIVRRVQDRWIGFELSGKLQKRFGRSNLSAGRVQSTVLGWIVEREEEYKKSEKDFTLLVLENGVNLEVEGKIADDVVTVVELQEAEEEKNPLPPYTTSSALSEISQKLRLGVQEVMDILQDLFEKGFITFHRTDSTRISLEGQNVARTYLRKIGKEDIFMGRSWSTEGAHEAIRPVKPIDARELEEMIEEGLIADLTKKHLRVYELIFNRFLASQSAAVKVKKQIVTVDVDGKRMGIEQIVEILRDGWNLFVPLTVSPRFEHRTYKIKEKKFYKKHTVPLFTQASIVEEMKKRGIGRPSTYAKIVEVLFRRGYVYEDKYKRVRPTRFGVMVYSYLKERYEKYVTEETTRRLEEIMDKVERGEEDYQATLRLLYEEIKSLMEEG

For data set [2], the target named is T2, rGyr_hel (reverse gyrase helicase-like domain) (Thermotoga maritima, UniProt O51934 59-541).
T2 sequence: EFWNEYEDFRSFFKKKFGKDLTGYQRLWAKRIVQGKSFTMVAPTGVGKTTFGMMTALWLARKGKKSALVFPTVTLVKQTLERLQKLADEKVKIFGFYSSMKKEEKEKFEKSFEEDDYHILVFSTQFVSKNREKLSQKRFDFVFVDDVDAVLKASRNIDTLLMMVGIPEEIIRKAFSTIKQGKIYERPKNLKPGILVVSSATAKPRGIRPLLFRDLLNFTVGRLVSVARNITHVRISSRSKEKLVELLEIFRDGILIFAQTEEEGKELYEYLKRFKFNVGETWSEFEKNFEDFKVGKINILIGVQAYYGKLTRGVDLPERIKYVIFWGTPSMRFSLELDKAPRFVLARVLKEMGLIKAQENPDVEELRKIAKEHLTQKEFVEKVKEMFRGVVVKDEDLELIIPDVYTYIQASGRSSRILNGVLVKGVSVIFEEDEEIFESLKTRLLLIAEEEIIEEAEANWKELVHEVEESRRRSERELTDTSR

The target of data set [3] is T3, rGyr_fl K106Q/Y851F (Thermotoga maritima, UniProt O51934 1-1104, K106Q;Y851F).
T3 sequence: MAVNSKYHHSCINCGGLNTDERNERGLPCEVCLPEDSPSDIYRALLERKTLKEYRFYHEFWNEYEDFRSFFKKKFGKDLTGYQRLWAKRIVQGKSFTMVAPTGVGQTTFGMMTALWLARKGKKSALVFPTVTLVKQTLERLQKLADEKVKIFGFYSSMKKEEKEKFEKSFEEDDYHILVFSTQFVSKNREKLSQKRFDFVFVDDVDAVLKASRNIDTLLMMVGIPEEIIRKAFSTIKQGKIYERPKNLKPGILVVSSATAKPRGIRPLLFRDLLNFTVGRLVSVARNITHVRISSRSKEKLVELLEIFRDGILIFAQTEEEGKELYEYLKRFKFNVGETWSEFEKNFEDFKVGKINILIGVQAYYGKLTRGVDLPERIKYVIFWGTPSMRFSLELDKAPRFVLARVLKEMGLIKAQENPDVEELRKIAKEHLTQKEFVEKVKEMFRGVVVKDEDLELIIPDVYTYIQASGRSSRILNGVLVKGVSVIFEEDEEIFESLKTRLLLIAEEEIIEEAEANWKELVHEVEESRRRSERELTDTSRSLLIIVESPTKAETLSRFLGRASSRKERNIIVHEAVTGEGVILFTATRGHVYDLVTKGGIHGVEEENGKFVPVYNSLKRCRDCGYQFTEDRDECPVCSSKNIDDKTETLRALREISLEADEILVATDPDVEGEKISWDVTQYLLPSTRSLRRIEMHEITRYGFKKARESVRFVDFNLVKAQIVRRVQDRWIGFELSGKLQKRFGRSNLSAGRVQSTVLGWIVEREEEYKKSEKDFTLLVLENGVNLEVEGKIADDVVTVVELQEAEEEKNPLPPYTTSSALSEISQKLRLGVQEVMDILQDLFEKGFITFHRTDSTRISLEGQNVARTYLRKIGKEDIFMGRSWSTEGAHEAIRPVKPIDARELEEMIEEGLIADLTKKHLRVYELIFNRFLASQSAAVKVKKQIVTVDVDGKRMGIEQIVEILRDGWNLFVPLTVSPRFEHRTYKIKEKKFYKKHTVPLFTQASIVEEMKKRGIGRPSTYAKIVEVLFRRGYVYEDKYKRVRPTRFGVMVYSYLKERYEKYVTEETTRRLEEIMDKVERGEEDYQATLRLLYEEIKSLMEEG

B1: 60-base ssDNA (ssDNA)
DNA: AAGCCAAGCTTCTAGAGTCAGCCCGTGATATTCATTACTTCTTATCCTAGGATCCCCGTT
Take B1: the Kd – broadly, the free concentration of one partner at which half of the binding sites on the other are occupied at equilibrium, for simple one-to-one binding – in data set [1] worked out at 49 ± 12 nM; in data set [2] it was 310 ± 40 nM.

B2: 60 bp dsDNA (dsDNA)
DNA 1: AAGCCAAGCTTCTAGAGTCAGCCCGTGATATTCATTACTTCTTATCCTAGGATCCCCGTT
DNA 2: AACGGGGATCCTAGGATAAGAAGTAATGAATATCACGGGCTGACTCTAGAAGCTTGGCTT
B2 registered a dissociation constant Kd in data set [3] of 460 ± 70 nM.

(Values after PMC2566858 (Nucleic Acids Research, 2008).)
